In patent US20210206838A1:

What was measured:
Assay in all cases: cell-based or functional assay
[1] = target: HIV pseudovirus Du172.17 (envelope glycoprotein) (HIV)
[2] = target: HIV pseudovirus SC05.8C11.2344 (envelope glycoprotein) (HIV)
[3] = target: HIV pseudovirus CNE52 (envelope glycoprotein) (HIV)
[4] = target: HIV pseudovirus RHPA4259.7 (envelope glycoprotein) (HIV)
[5] = target: HIV pseudovirus Ce1176_A3 (envelope glycoprotein) (HIV)
[6] = target: HIV pseudovirus 0260.v5.c36 (envelope glycoprotein) (HIV)

B1: MS-40 (antibody, V domains shown)
VH: QMQLQESGPGLVKPSETLSLTCSVSGASISDSYWSWIRRSPGKGLEWIGYVHKSGDTNYSPSLKSRVNLSLDTSKNQVSLSLVAATAADSGVYYCARTLHGRRIYGIVAFNEWFTYFYMDVWGNGTQVTVSS
VL: SDISVAPGQTARISCGEKSLGSRAVQWYQQRAGQAPSLIIYNNQDRPSGIPERFSGSPDSPFGTTATLTITSVEAGDEADYYCHIWDSRVPTKWVFGGGTTLTVLG
[1]
  neutralization IC50: 0.046 µg/mL
  neutralization IC80: 0.36 µg/mL
[2]
  neutralization IC50: 0.014 µg/mL
  neutralization IC80: 0.05 µg/mL
[3]
  neutralization IC50: 2.22 µg/mL
  neutralization IC80: 22.2 µg/mL
[4]
  neutralization IC50: 0.006 µg/mL
  neutralization IC80: 0.025 µg/mL
[5]
  neutralization IC50: 0.009 µg/mL
  neutralization IC80: 0.033 µg/mL
[6]
  neutralization IC50: 0.043 µg/mL
  neutralization IC80: 0.149 µg/mL

B2: MS-48 (antibody, V domains shown)
VH: QMQLQESGPGLVKPSETLSLTCSVSGASISDSYWSWIRRSPGKGLEWIGYVHKSGDTNYSPSLKSRVNLSLDTSKNQVSLSLVAATAADSGKYYCARTLHGRRIYGIVAFNEWFTYFYMDVWGNGTQVTVSS
VL: SDISVAPGETARISCGEKSLGSRAVQWYQQRAGQAPSLIIYNNQDRPSGIPERFSGSPDSPFGTTATLTITSVEAGDEADYYCHIWDSRVPTKWVFGGGTTLTVLG
[1]
  neutralization IC50: 0.02 µg/mL
  neutralization IC80: 0.165 µg/mL
[2]
  neutralization IC50: 0.016 µg/mL
  neutralization IC80: 0.063 µg/mL
[3]
  neutralization IC50: 2.81 µg/mL
  neutralization IC80: 21.9 µg/mL
[4]
  neutralization IC50: 0.013 µg/mL
  neutralization IC80: 0.034 µg/mL
[5]
  neutralization IC50: 0.009 µg/mL
  neutralization IC80: 0.036 µg/mL
[6]
  neutralization IC50: 0.021 µg/mL
  neutralization IC80: 0.108 µg/mL
